The record followed here is the DeepSol protein solubility set.

The series is described as follows: soluble on expression in E. coli; label from the status in PepcDB or PDB records.
As to “MAHHHHHHMGGFGSKNMEYYNYASMKLLERDKYTNEKEEEEDDQYCKETDIREAVKKAREIRNCNYKESMDLYIKALKMLKKLKENNSRIYRNVLEFEIRPQEIASSAPLNTSLEKNIHMKKEGETNYTCAPPNDNQAISLNNKIASLYNEIADLCCIHDFIEKSLFYYDKACSYNPSKIDYIYKKGVLFQQMNDTERAINTFKIILSAEPNHIPTLFSLGNLYRYIDNHIALSYFEAILKIEPNNTEVLSLIASCYDNLGKLNEAISYQNKAVQIDPDNFNHKKFAQRLIEMKSQN”, the “soluble on expression in E. coli” value is reported as “soluble”. Next, “SLAATGNASKPSLNSFYADGLGQLRNGLFSCFQPVFGYFGTKTTVEIEKSEDELWEIPFDAISELEWLGSGSQGAVFRGQLENRTVAVKKVNQLKETEIKHLRHLRHQNIIEFLGVCSKSPCYCIVMEYCSKGQLCTVLKSRNTITRELFAQWVKEIADGMHYLHQNKVIHRDLKSPNILISAEDSIKICDFGTSHMQKKMDSTMMSFCGTVSWMAPEMIKKQPCNEKVDVYSFGVVLWEMLTRETPYANIAQMAIIFGVGTNILSLPMPEEAPKGLVLLIKQCLSQKGRNRPSFSHIRQHWEIFKPELFEMTEEEWQLAWDSYREFAKCIQYPSTVTRDHGGPKSAFAMEEEIQRKRHEQLNHIKDIRNMYEMKLKRTNKMYDKLQGCFTELKLKESELAEWEKDLTER”: “soluble”.

As to “QGTRVTLKVDKEYQQALSRGHSAGHLAYLALNKVLAASYWRKDADRKDPHGNYDFNSYAQEASFVTPDKCLDTYRLGKTLRKRGLNSAEMLSDLEKIEGQVNAQLKFWLERDAAIIMDCHGDNLTDSRYWKCDLGEGELAVIPCGGTHAEHLSDFGSIHVKLVEMDSQTIEMHTDVIACFSN”, the “soluble on expression in E. coli” value is listed as “not soluble”. Next, “MGSDKIHHHHHHMALEVVLWDFDGVIFDSMHLKNEGFRALFQKHGNKNQESLKQFEVYHYQSGGISRNEKIQYFYNEILKTPIAQEEVDALALEFGTIIEQKLFDREHLNSEVMAFIDKHYKNHVFHIASAALHSELQVLCEFLGIIKYFKSVEGSPPNKPKIIANIIQKYAYNPGRMLMIGDSVNDYESAQANEVAFLGYNSKVLKNLVGQNGYQGKYLESFKGFDLQNFIKE”: “not soluble”; “MGSDKIHHHHHHENLYFQGMTLSITSNFDAGAIDVVSCERADAIRLRVRGDNRSEFAQWFYFRLTGARGERCVMTFENANDCAYPAGWRDYRAVASYDRVNWFRVPTSYDGQMLTIDHTPEFDSIHYAYFEPYSEERHSEFLGAVQQMPQASVVELGRTVEGRPMSLVVLGTPDEAGAAKKKVWIIARQHPGESMAEWFIEGLVKRLVGWGDWSGDPVARKLYDHATFYIVPNMNPDGSVHGNLRTNAAGANLNREWMEPDAERSPEVLVVRDAIHAIGCDLFFDIHGDEDLPYVFAAGSEMLPGFTEQQRVEQSAFIDSFKRASPDFQDEHGYPPGKYREDAFKLASKYIGHRFGCLSLTLEMPFKDNANLPDEHIGWNGARSASLGAAMLGAILEHVRAFA”: “soluble”. To “MTETDKKQEQENHAECEDKPKPCCVCKPEKEERDTCILFNGQDSEKCKEFIEKYKECMKGYGFEVPSAN” belongs “soluble”; to “MFKGDMNKKRAKALQKVKEAITLHGGQTILSTGITGDDARLAKAVCEAGVKLLEPNHPALALARGHKGVSNMHAAEQIRHEITNSQMAEAVHGVRNVVPDDIFITVGIAGGFTETLPVPLSEKEILEIARAGADGLHTHKSDWDDLQDIVNLAHQYGLTVDAYIGHPDDLHTFGIPARTPEEVASVAKRMQDIGVDMIGLMTGMSYEGVAAGDIPQMIKDRLRALVGAVDVPTLAEGGINLANAKAFKDTGVNILVVGTAIDNMVCNAAKEAVTPFIVH”, “soluble”. “MGVKVASSSTFLQWTTQPIIHQSSSPSQTLASGTITSPSKRRSTVHDGRFLSCRFVTQRLNRSALFGTPSTKLHRPKSCELWKSSSSSSRPIKTQSFRRVYSANLDPFSDEEFSKKIQELTLRFNIPHHDDDENSIEPPWNEMVHLSSIEMKANSVDLPLSLRIIKKKRQWEEGVKQAGESACCSMNKAFSSMVFMIRELQSFTLHMREILFYEDLQEILLRVREEMQQSFVWLFQQVFSATPTLMVYVMILLANFTVYSIGNNSSALAAVAPLPPTITELTTVSETEETNVKFDSSVVKTFFVSSPSGSIASVGGNNNGGGGNVKPVLSGTDGDGSDGSEQFRTIIPEGVSQLSSSNFGSEPSVSGQDEHRLWNSMVEEAERMQYSNIDDSLDQETRKRFVSHVEARVEAEEDTGYFKTELMYQTELSQEPNNPLLLANYAQFLYLVSNDHDRAEEYFKRAVGVEPKDAEAFSKYATFLWRARDDLWAAEETFLEAIDADPTNSYYAANYANFLWNTGGDDTCFPLDDESHEDTI”: the “soluble on expression in E. coli” value was “not soluble”. To “MSSVPQSKQELELAIHSVFPKLMADYRSIPAQMSRVCSIDGNIQGTQISVCDTVAYLIGWGKLVLKWYELTSQTLPVDFPDTGYKWNQLELLADRFHQEYHQWQYSDLLNEYELTMAKLLTLIASLSVQQLYGIAWYDKWTLGRMIQFNTYSPMKNMRTKVRRFKKDNALKLEHHHHHH” belongs “not soluble”. To “MGSDKIHHHHHHMGNVASSEVINQLEAWYQAIKRLQLAEATTIKHEVMQAIDGMDQDRKVFLYYHLIDSRYHLLIHQWDYAGAILKGLKAQVELKETDKLLRYYYYFFSGLYEFHTKQYIEAIHFYRLAESLLKDIPDDIEQAEFNYQLAVAYYEIDQHFVSMDHAEKALELYLQNDQYKNRVATTQMIVAANQLDLYQFASAEALYKNAIELASDVQDFFVKGMGYYNLGVCYDRQDKLDLARECFESALYVDLPKSQYQGVMVGTKYMLARVLFKQGILEEGMHWFEEAKALADEMKDASYQAKLSTIHSIYKERDEVEIDDGLRVLKEGKLWSDVFELAINAARHFQEKEDYSLAAKYFDEGLVAKDQIKAWKEDTAST” belongs “not soluble”; to “MSLLSKDIKLLPGSKVEVVIRVSKNVIQEKYNSLLQDYSSRLKIQGFRIGKVPINVIENKYSEGLKATVLEEVINNSFKEFFKEESKIPLSYATPTVKEKNLKLNLDKDFEFTFTYETYPEFKIPSFDEIDIKVEIPEVFIDDSDIDDEIKNLQIENSIIIEDEEGVVKEDSIVKVDFVELDDLSNEIVSTKRQGFVFTVGKSETYYDFDKDVIGMRINEERVIEKSYIADYKFEELAGSSRKLKIKIKSIKKRDLPLIDDEFAQDISDKYNTLDDLKNFIRSSLLNIVEEKKETLKLNKFFSTISEKLEIDIPHSMIEAEIEIAFKDAKRQNKNNMSLEEFKSIFYSSGYIGGDNLKDEILGNLKSKLIMQKMVDLDPIKVTESDVEDEMARQSKNLGVSYEEIKKFYEDQNLISYLKDDIKRERAKKKILENLKEVKGKKLNFRDFVNYKIEGHHHHHH”, “soluble”; to “METIWIPHLHTALAYMHERFLELFILPDSCPSKKLEELQQKEGN”, “not soluble”.

As for “MSDNDELQQIAHLRREYTKGGLRRRDLPADPLTLFERWLSQACEAKLADPTAMVVATVDEHGQPYQRIVLLKHYDEKGMVFYTNLGSRKAHQIENNPRVSLLFPWHTLERQVMVIGKAERLSTLEVMKYFHSRPRDSQIGAWVSKQSSRISARGILESKFLELKQKFQQGEVPLPSFWGGFRVSLEQIEFWQGGEHRLHDRFLYQRENDAWKIDRLAP”, the “soluble on expression in E. coli” value is recorded as “soluble”. Next, “MGHHHHHHSHMAMRQTPLTCSGHTRPVVDLAFSGITPYGYFLISACKDGKPMLRQGDTGDWIGTFLGHKGAVWGATLNKDATKAATAAADFTAKVWDAVSGDELMTLAHKHIVKTVDFTQDSNYLLTGGQDKLLRIYDLNKPEAEPKEISGHTSGIKKALWCSEDKQILSADDKTVRLWDHATMTEVKSLNFNMSVSSMEYIPEGEILVITYGRSIAFHSAVSLDPIKSFEAPATINSASLHPEKEFLVAGGEDFKLYKYDYNSGEELESYKGHFGPIHCVRFSPDGELYASGSEDGTLRLWQTVVGKTYGLWKCVLPEEDSGELAKPK”: “not soluble”.
